Source: paper PMC11988184

B1: c-Myc tagged MIRO1 (mitochondrial rho GTPase 1), wild type [not stated] / MCU (mitochondrial Ca2+ uniporter), endogenous in HEK cells [human (endogenous in HEK)] (parent)
chain 1: MKKDVRILLVGEPRVGKTSLIMSLVSEEFPEEVPPRAEEITIPADVTPERVPTHIVDYSEAEQSDEQLHQEISQANVICIVYAVNNKHSIDKVTSRWIPLINERTDKDSRLPLILVGNKSDLVEYSSMETILPIMNQYTEIETCVECSAKNLKNISELFYYAQKAVLHPTGPLYCPEEKEMKPACIKALTRIFKISDQDNDGTLNDAELNFFQRICFNTPLAPQALEDVKNVVRKHISDGVADSGLTLKGFLFLHTLFIQRGRHETTWTVLRRFGYDDDLDLTPEYLFPLLKIPPDCTTELNHHAYLFLQSTFDKHDLDRDCALSPDELKDLFKVFPYIPWGPDVNNTVCTNERGWITYQGFLSQWTLTTYLDVQRCLEYLGYLGYSILTEQESQASAVTVTRDKKIDLQKKQTQRNVFRCNVIGVKNCGKSGVLQALLGRNLMRQKKIREDHKSYYAINTVYVYGQEKYLLLHDISESEFLTEAEIICDVVCLVYDVSNPKSFEYCARIFKQHFMDSRIPCLIVAAKSDLHEVKQEYSISPTDFCRKHKMPPPQAFTCNTADAPSKDIFVKLTTMAMYPHVTQADLKSSTFWLRASFGATVFAVLGFAMYKALLKQR
chain 2: VHQRIASWQNLGAVYCSTVVPSDDVTVVYQNGLPVISVRLPSRRERCQFTLKPISDSVGVFLRQLQEEDRGIDRVAIYSPDGVRVAASTGIDLLLLDDFKLVINDLTYHVRPPKRDLLSHENAATLNDVKTLVQQLYTTLCIEQHQLNKERELIERLEDLKEQLAPLEKVRIEISRKAEKRTTLVLWGGLAYMATQFGILARLTWWEYSWDIMEPVTYFITYGSAMAMYAYFVMTRQEYVYPEARDRQYLLFFHKGAKKSRFDLEKYNQLKDAIAQAEMDLKRLRDPLQVHLPLRQIGEKD

Variants of: B1
Test: co-immunoprecipitation (anti-Myc IP, immunoblot quantification)
Settings: with MCU (mitochondrial Ca2+ uniporter), c-Myc-tagged MIRO1 constructs expressed in HEK cells for 24 h, n = 6 independent experiments, parent: 0.26, read off a plot

response [AU] | Variant
0.36 | chain 1 S432N
0.065 | chain 1 E208K E328K
